Data taken from patent US20140017235A1 (published 2014).

Molecular target: T1, human NGF (human, UniProt P01138 122-241)
T1 construct: also called hNGF; nerve growth factor
Assay: BIAcore SPR screening, Fab over immobilized human NGF
Procedure: Affinities of anti-NGF Fabs and monoclonal antibodies were determined using the BIAcore3000™ surface plasmon resonance (SPR) system (BIAcore, INC, Piscaway N.J.). CM5 chips were activated with N-ethyl-N′-(3-dimethylaminopropyl)-carbodiinide hydrochloride (EDC) and N-hydroxysuccinimide (NHS) according to the supplier's instructions. Human NGF was diluted into 10 mM sodium acetate pH 4.0 and injected over the activated chip at a concentration of 0.005 mg/mL. Using variable flow time across the individual chip channels, two ranges of antigen density were achieved: 100-200 response units (RU) for detailed kinetic studies and 500-600 RU for screening assays. The chip was blocked with ethanolamine. […] HBS-EP buffer (0.01M HEPES, pH 7.4, 0.15 NaCl, 3 mM EDTA, 0.005% Surfactant […]) was used as running buffer for all the BIAcore assays.

T1 sequence (P01138 122-241 limits assumed): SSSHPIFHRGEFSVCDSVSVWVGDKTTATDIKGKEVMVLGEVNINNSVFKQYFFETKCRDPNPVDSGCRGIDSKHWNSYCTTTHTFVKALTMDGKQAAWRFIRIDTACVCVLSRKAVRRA

B1: H19-L129 (Fab, V domains shown)
VH: QVQLQESGPGLVKPSETLSLTCTVSGFSLIGYDLNWIRQPPGKGLEWIGIIWGDGTTDYNSAVKSRVTISKDTSKNQFSLKLSSVTAADTAVYYCARGGYYYGTSYYFDYWGQGTLVTVS
VL: DIQMTQSPSSLSASVGDRVTITCRASQSISNNLNWYQQKPGKAPKLLIYYTSRFHSGVPSRFSGSGSGTDFTFTISSLQPEDIATYYCQQSKTLPYTFGQGTKLEIKR
notes: E. coli Fab with human Ckappa and human IgG2a CH1; also called H19-L129 Fab; Fab H19-L129
koff: 0.0001 s⁻¹
